± gives the standard deviation.
Test: collision cross section of modified peptide (TIMS, N2, iRT-aligned); higher = larger / more extended gas-phase ion
Method in brief: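 Synthetic peptide pools (~100 fmol/µL in 2% acetonitrile/0.1% formic acid, iRT standard spiked 1:40) were separated on a 120-min nanoflow C18 gradient at 60 °C. They were analysed on a timsTOF Pro/HT (dda-PASEF, nitrogen, ~2.4 mbar) and identified with MaxQuant. 1/K0 was calibrated with three reference ions and aligned run-wise to the median iRT peptide deviation. Collision cross section came from the Mason-Schamp equation, averaging 1–3 technical replicates of the most abundant feature per charge state.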

[1] = charge state: 2, modification: Acetyl (K)
[2] = charge state: 3, modification: Acetyl (K)
[3] = charge state: 2, modification: Malonyl
[4] = charge state: 2, modification: Succinyl
[5] = charge state: 2, modification: Butyryl
[6] = charge state: 3, modification: Butyryl
[7] = charge state: 3, modification: Methyl (K)
[8] = charge state: 2, modification: Dimethyl (K)
[9] = charge state: 3, modification: Dimethyl (K)
[10] = charge state: 2, modification: Hydroxyproline
[11] = charge state: 3, modification: Trimethyl (K)
[12] = charge state: 3, modification: Methyl (R)
[13] = charge state: 3, modification: Succinyl
[14] = charge state: 2, modification: Nitro (Y)
[15] = charge state: 2, modification: Citrullination (R)
[16] = charge state: 3, modification: Citrullination (R)
[17] = charge state: 2, modification: Formyl
[18] = charge state: 3, modification: Formyl
[19] = charge state: 2, modification: Trimethyl (K)
[20] = charge state: 2, modification: Biotin
[21] = charge state: 2, modification: hydroxyisobutyryl
[22] = charge state: 3, modification: hydroxyisobutyryl
[23] = charge state: 3, modification: GlyGly (K)
[24] = charge state: 2, modification: Crotonyl

Substance “ISSNFSSIIAEKLR [_ISSNFSSIIAEK(Acetyl (K))LR_]” has a collision cross section [1] of 428.83 ± 3 Å² and a collision cross section [2] of 506.75 Å².

VETTVTSLKTK [_VETTVTSLK(Acetyl (K))TK_] showed a collision cross section [1] of 378.83 ± 0.45 Å² and a collision cross section [2] of 444.47 Å².

LDHLAEKFR [_LDHLAEK(Malonyl)FR_] gave a collision cross section [3] of 366.99 ± 1.7 Å².

With GEVQVSDKER [_GEVQVSDK(Succinyl)ER_] the collision cross section [4] was 361.33 ± 0.24 Å².

“LLIVSTTPYSEKDTK [_LLIVSTTPYSEK(Acetyl (K))DTK_]” gave a collision cross section [1] of 449.39 ± 2.3 Å² and a collision cross section [2] of 486.31 ± 3 Å².

With FDDTNPEKEEAK [_FDDTNPEK(Butyryl)EEAK_] the collision cross section [5] was 399.47 ± 0.85 Å² and the collision cross section [6] was 440.77 ± 2 Å².

“PANEKATDDYHYEK [_PANEK(Methyl (K))ATDDYHYEK_]” showed a collision cross section [7] of 492.44 ± 0.72 Å².

With “VFSIISSEKELK [_VFSIISSEK(Dimethyl (K))ELK_]” the collision cross section [8] was 416.15 ± 1.1 Å² and the collision cross section [9] was 490.22 ± 1.2 Å².

Substance RGPPGAK [_RGPP(Hydroxyproline)GAK_] has a collision cross section [10] of 303.1 ± 0.0067 Å².

With “AGQKLIDVNHYAK [_AGQK(Trimethyl (K))LIDVNHYAK_]” the collision cross section [11] was 474.3 ± 1.8 Å².

For “ALASIDSKLNQAK [_ALASIDSK(Dimethyl (K))LNQAK_]”, the collision cross section [8] was 412.97 ± 1.1 Å² and the collision cross section [9] was 457.79 ± 2.1 Å².

For “SHLRHAIPSAER [_SHLR(Methyl (R))HAIPSAER_]”, the collision cross section (charge state: 2, modification: Methyl (R)) was 404.4 Å² and the collision cross section [12] was 477.29 ± 19 Å².

Substance “LTSLNVKYNNDK [_LTSLNVK(Dimethyl (K))YNNDK_]” has a collision cross section [8] of 409.23 ± 0.76 Å² and a collision cross section [9] of 464.81 ± 1.6 Å².

For “ITLSKHQNVQLPR [_ITLSK(Dimethyl (K))HQNVQLPR_]”, the collision cross section [9] was 489.75 ± 1.2 Å².

Work on ITASLCDLKSR [_ITASLCDLK(Butyryl)SR_] yielded a collision cross section [5] of 390.25 Å².

Work on “AAQASDLEKIHLDEK [_AAQASDLEK(Butyryl)IHLDEK_]” yielded a collision cross section [5] of 463.03 ± 1.1 Å² and a collision cross section [6] of 499.42 ± 2.9 Å².

Substance DHLSDKESK [_DHLSDK(Succinyl)ESK_] has a collision cross section [4] of 350.32 ± 1.6 Å² and a collision cross section [13] of 416.05 ± 0.88 Å².

For “PSVGSQSNQAGQGKR [_PSVGSQSNQAGQGK(Acetyl (K))R_]”, the collision cross section [1] was 409.31 ± 3.1 Å² and the collision cross section [2] was 465.77 ± 2.3 Å².

With CYYGSDTAGR [_CY(Nitro (Y))YGSDTAGR_] the collision cross section [14] was 352.25 ± 0.8 Å².

“VFIGNLNTLVVKKK [_VFIGNLNTLVVK(Acetyl (K))KK_]” showed a collision cross section [2] of 507.56 ± 1 Å².

In the case of “GFLQPPPLRQPR [_GFLQPPPLR(Citrullination (R))QPR_]”, the collision cross section [15] is reported as 391.62 ± 0.23 Å² and the collision cross section [16] is reported as 460.68 Å².

Substance “ANEKTESSSAQQVAVSR [_ANEK(Formyl)TESSSAQQVAVSR_]” has a collision cross section [17] of 431.82 ± 1.4 Å² and a collision cross section [18] of 523.66 ± 4.2 Å².

With “LLEQKTQESQK [_LLEQK(Trimethyl (K))TQESQK_]” the collision cross section [19] was 409.98 ± 2.2 Å² and the collision cross section [11] was 452.07 ± 1.5 Å².

For “YEEIVKEVSTYIK [_YEEIVK(Trimethyl (K))EVSTYIK_]”, the collision cross section [19] was 455.74 ± 0.69 Å² and the collision cross section [11] was 498.32 ± 1.1 Å².

With “SSGPGGQNVNKVNSK [_SSGPGGQNVNK(Formyl)VNSK_]” the collision cross section [17] was 398.34 ± 0.83 Å² and the collision cross section [18] was 435.41 ± 4.1 Å².

Work on VETTVTSLKTK [_VETTVTSLK(Formyl)TK_] yielded a collision cross section [17] of 373.38 ± 0.89 Å².

Substance “GPPRGGPGGELPR [_GPPR(Methyl (R))GGPGGELPR_]” has a collision cross section [12] of 472.6 ± 2.6 Å².

“DTPTSAGPNSFNKGK [_DTPTSAGPNSFNK(Biotin)GK_]” showed a collision cross section [20] of 428.73 ± 1.1 Å² and a collision cross section (charge state: 3, modification: Biotin) of 478.46 Å².

Work on SLKLNTAEDAK [_SLK(Malonyl)LNTAEDAK_] yielded a collision cross section [3] of 374.06 ± 0.0012 Å².

For “GGPGSTLSFVGKR [_GGPGSTLSFVGK(Gluratylation)R_]”, the collision cross section (charge state: 2, modification: Glutarylation) was 392.32 ± 0.52 Å² and the collision cross section (charge state: 3, modification: Glutarylation) was 441.96 ± 5.9 Å².

For “ITGKNQVTATK [_ITGK(Dimethyl (K))NQVTATK_]”, the collision cross section [8] was 369.07 ± 1.1 Å² and the collision cross section [9] was 427.9 Å².

In the case of “SGGGYGGDRGGGYGGDR [_SGGGYGGDR(Methyl (R))GGGYGGDR_]”, the collision cross section [12] is reported as 461.83 ± 3 Å².

In the case of PSVSTKLISK [_PSVSTK(Formyl)LISK_], the collision cross section [17] is reported as 346.92 ± 1.1 Å².

“SSGPGGQNVNKVNSK [_SSGPGGQNVNK(Acetyl (K))VNSK_]” gave a collision cross section [1] of 401.59 ± 1.4 Å² and a collision cross section [2] of 440.11 ± 2.5 Å².

In the case of “VGLQVVAVKAPGFGDNR [_VGLQVVAVK(Butyryl)APGFGDNR_]”, the collision cross section [5] is reported as 450.45 ± 0.52 Å² and the collision cross section [6] is reported as 500.38 ± 1.9 Å².

Substance LLFSNTAAQKLR [_LLFSNTAAQK(Malonyl)LR_] has a collision cross section [3] of 400.72 ± 0.029 Å².

“LTEKELAEAASK [_LTEK(hydroxyisobutyryl)ELAEAASK_]” showed a collision cross section [21] of 392.48 ± 2 Å² and a collision cross section [22] of 455.87 ± 2.2 Å².

In the case of “LGNTISSLFGGGTTPDAK [_LGNTISSLFGGGT(HexNAc (ST))TPDAK_]”, the collision cross section (charge state: 2, modification: HexNAc (ST)) is reported as 471.52 Å².

Substance SGKFTQQDIDEAK [_SGK(Biotin)FTQQDIDEAK_] has a collision cross section [20] of 433.94 ± 2.7 Å².

“SLEEEGAAHSGKR [_SLEEEGAAHSGK(GlyGly (K))R_]” gave a collision cross section (charge state: 2, modification: GlyGly (K)) of 418.89 ± 1.9 Å² and a collision cross section [23] of 473.02 ± 0.33 Å².

In the case of “FGTINIVHPKLGSYTK [_FGTINIVHPK(GlyGly (K))LGSYTK_]”, the collision cross section [23] is reported as 511.55 ± 1.9 Å².

Substance “PANEKATDDYHYEK [_PANEK(Crotonyl)ATDDYHYEK_]” has a collision cross section [24] of 442.98 ± 0.0094 Å² and a collision cross section (charge state: 3, modification: Crotonyl) of 509.39 ± 1.3 Å².

“DLGKFQVATDALK [_DLGK(Propionyl)FQVATDALK_]” gave a collision cross section (charge state: 2, modification: Propionyl) of 407.94 Å².

Substance “ANLEKAQAELVGTADEATR [_ANLEK(Trimethyl (K))AQAELVGTADEATR_]” has a collision cross section [11] of 528.43 ± 0.88 Å².

Substance IGNSYFKEEK [_IGNSYFK(Methyl (K))EEK_] has a collision cross section (charge state: 2, modification: Methyl (K)) of 373.94 ± 0.87 Å² and a collision cross section [7] of 450.33 ± 4.8 Å².

“TVSKVDDFLANEAK [_TVSK(Crotonyl)VDDFLANEAK_]” showed a collision cross section [24] of 421.27 ± 0.55 Å².

“RGVGAGAIAK [_R(Citrullination (R))GVGAGAIAK_]” gave a collision cross section [15] of 319.31 Å².

VGEFSGANKEK [_VGEFSGANK(Succinyl)EK_] showed a collision cross section [4] of 357.27 ± 0.73 Å².

Work on “VFSIISSEKELK [_VFSIISSEK(Trimethyl (K))ELK_]” yielded a collision cross section [19] of 421.37 ± 1.1 Å² and a collision cross section [11] of 454.68 ± 1.8 Å².

“GDTGLPGPQGIPGGVGSPGR [_GDTGLPGPQGIP(Hydroxyproline)GGVGSPGR_]” showed a collision cross section [10] of 430.06 ± 1.1 Å².

In the case of SSFAYKDQNENR [_SSFAYK(Malonyl)DQNENR_], the collision cross section [3] is reported as 401.56 ± 0.03 Å².

For IISSIEQKEENK [_IISSIEQK(Succinyl)EENK_], the collision cross section [4] was 408.03 ± 0.55 Å² and the collision cross section [13] was 479.06 ± 2.5 Å².

In the case of “GRGGAESHTFK [_GR(Citrullination (R))GGAESHTFK_]”, the collision cross section [15] is reported as 374.44 ± 0.39 Å² and the collision cross section [16] is reported as 436.66 ± 2.2 Å².

In the case of “GSHGQTPSPGALPLGR [_GS(HexNAc (ST))HGQTPSPGALPLGR_]”, the collision cross section (charge state: 3, modification: HexNAc (ST)) is reported as 494.18 ± 4.8 Å².

In the case of “IINEPTAAAIAYGLDKK [_IINEPTAAAIAYGLDK(hydroxyisobutyryl)K_]”, the collision cross section [21] is reported as 464.51 ± 4.5 Å² and the collision cross section [22] is reported as 564.39 ± 3 Å².

LYDIDVAK [_LY(Nitro (Y))DIDVAK_] showed a collision cross section [14] of 344.32 ± 0.56 Å².
